Consider four molecules from patent US20130171170A1 (published 2013).

The target in test [1] is T1, cynomolgus monkey (cyno) CD22 expressed on the surface of CHO cells (cynomolgus monkey).
T1 construct: residues 1-19 (signal) should be removed
T1 chain: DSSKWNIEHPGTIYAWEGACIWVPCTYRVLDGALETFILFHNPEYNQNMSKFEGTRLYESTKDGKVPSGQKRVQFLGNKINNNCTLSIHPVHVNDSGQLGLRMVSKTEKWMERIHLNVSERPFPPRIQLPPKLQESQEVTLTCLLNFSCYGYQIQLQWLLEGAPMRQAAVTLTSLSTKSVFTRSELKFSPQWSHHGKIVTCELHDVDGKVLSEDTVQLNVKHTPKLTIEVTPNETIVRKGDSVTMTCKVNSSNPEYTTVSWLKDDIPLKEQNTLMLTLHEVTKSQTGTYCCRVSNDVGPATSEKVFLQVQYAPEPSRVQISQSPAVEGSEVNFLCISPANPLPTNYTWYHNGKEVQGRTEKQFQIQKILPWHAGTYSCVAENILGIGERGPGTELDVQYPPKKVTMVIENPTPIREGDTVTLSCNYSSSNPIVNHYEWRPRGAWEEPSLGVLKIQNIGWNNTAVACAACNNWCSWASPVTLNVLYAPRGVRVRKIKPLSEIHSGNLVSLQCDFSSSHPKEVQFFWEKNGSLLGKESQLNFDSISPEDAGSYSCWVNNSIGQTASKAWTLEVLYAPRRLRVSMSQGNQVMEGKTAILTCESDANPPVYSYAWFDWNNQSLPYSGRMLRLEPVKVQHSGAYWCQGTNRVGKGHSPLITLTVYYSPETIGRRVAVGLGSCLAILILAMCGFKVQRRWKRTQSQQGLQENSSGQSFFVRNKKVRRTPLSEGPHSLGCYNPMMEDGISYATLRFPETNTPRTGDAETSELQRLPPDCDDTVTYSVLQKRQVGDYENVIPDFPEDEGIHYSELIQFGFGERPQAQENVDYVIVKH
Briefly: cell-based competitive binding of 125I-labelled against unlabelled antibody on CHO cells, Scatchard analysis; repeated assays. On the procedure: (§1) Briefly, CHO cells stably expressing full length human CD22 (SEQ ID NO:27) or cynomolgus monkey (cyno) CD22 (SEQ ID NO:31). […] A cell-based, competitive binding assay was performed using serially diluted, unlabeled anti-CD22 antibody. Antibodies were allowed to bind to the cells for 4 hours at 4° C. Binding affinity, KD, of the antibodies was determined in accordance with standard Scatchard analysis performed utilizing a non-linear curve fitting program (see, for example, Munson et al., Anal Biochem, 107: 220-239, 1980).

Test [2] deals with T2, human CD22-beta-ECD-His tagged soluble antigen (human, UniProt P20273 22-681).
T2 construct: also called soluble CD22 extracellular domain (ECD); Soluble Human CD22
T2 sequence: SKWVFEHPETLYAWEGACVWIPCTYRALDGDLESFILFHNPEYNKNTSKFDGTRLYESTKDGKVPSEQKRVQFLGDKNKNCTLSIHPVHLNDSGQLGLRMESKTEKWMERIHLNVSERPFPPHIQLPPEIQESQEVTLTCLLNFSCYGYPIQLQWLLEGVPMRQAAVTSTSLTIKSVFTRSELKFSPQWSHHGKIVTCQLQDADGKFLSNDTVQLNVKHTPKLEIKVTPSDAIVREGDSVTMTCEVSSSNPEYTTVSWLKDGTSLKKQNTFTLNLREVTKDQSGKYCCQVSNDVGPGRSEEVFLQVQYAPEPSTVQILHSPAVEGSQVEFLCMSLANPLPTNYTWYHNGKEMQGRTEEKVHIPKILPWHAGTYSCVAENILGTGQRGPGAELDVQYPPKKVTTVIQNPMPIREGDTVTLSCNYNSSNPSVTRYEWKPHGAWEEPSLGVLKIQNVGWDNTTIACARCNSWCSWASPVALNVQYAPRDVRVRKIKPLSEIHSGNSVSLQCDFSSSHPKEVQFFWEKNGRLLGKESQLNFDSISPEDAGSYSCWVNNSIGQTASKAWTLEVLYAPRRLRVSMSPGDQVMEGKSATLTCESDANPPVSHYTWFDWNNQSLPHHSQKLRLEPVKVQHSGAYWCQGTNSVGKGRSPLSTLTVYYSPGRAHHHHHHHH
Nature of the test: SPR (BIACORE 3000), antibody coupled to the chip, soluble CD22-beta-ECD-His injected, 25 C. The method, then: The binding affinity of murine and humanized 10F4 antibody for soluble CD22 extracellular domain (ECD) was determined by surface plasmon resonance measurement using a BIACORE® 3000 system (Biacore, Inc., Piscataway, N.J.). Briefly, carboxymethylated dextran biosensor chips (CMS, Biacore Inc.) were activated with N-ethyl-N′-(3-dimethylaminopropyl)-carbodiimide hydrochloride (EDC) and N-hydroxysuccinimide (NHS) according to the supplier's instructions. These activated chips were coated with anti-CD22 IgG1 antibody 10F4 (murine or humanized) by dilution to 5 μg/ml with 10 mM sodium acetate, pH 4.8, before injection at a flow rate of […] to achieve approximately 500 response units (RU) of coupled antibody. Next, 1M ethanolamine was injected to block unreacted groups. […] Association rates (kₒₙ) and dissociation rates (koff) were calculated using a simple one-to-one Langmuir binding model (BIAevaluation Software version 3.2). The equilibrium dissociation constant (Kd) was calculated as the ratio koff/kₒₙ. Anti-CD22 antibody, RFB4, was used as a control (Chemicon International, Inc., Temecula, Calif., catalog no. CBL147).
In general terms: In SPR one partner is held on a chip, and binding of the other changes the refractive index at the surface.

The target in test [3] is T1, cynomolgus monkey (cyno) CD22 expressed …. Nature of the test: cell-based competitive binding of 125I-labelled against unlabelled antibody on CHO cells, 4 h at 4 C, Scatchard analysis. On the procedure: as §1
Test [4] addresses T3, CD22 expressed on the surface of BJAB-lucs cells (human, UniProt P20273 20-847).
T3 construct: whole, on cells; also called CD22 expressed on BJAB-lucs cells
T3 sequence (looked up): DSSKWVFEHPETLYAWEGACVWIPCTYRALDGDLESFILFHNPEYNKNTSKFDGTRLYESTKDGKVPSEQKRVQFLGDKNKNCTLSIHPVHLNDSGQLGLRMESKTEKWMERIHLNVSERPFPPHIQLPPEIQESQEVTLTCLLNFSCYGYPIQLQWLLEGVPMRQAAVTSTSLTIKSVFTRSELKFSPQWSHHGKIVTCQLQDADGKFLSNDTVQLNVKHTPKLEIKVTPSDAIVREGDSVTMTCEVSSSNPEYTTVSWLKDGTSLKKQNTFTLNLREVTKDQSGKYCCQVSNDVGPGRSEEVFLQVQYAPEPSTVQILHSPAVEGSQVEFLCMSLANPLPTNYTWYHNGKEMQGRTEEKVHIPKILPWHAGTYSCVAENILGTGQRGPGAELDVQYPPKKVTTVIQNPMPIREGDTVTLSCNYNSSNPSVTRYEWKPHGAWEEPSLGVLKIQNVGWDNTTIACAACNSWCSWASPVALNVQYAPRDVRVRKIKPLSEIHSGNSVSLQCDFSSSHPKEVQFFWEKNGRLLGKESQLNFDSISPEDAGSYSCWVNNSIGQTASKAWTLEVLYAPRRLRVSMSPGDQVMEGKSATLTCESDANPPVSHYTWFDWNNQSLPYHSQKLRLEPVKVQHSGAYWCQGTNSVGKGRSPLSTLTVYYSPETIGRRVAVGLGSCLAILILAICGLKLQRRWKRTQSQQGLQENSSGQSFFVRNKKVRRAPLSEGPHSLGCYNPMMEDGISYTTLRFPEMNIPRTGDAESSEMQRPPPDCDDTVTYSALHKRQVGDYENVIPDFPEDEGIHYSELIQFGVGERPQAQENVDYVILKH
Briefly: FACS on BJAB-lucs cells; biotinylated goat anti-huFc plus Streptavidin-PE. The source says: Anti-CD22 antibody bound to the cell surface was detected using biotinylated goat anti-huFc plus Streptavidin-PE.

“And” between values parts separate entries of the source, which are not always exact repeats. Equal values may be shown once.

B1: humanized 10F4 version 1 antibody (antibody, IgG1, V domains shown)
VH: EVQLVESGGGLVQPGGSLRLSCAASGYEFSRSWMNWVRQAPGKGLEWVGRIYPGDGDTNYSGKFKGRFTISADTSKNTAYLQMNSLRAEDTAVYYCARDGSSWDWYFDVWGQGTLVTVSS
VL: DIQMTQSPSSLSASVGDRVTITCRSSQSIVHSNGNTFLEWYQQKPGKAPKLLIYKVSNRFSGVPSRFSGSGSGTDFTLTISSLQPEDFATYYCFQGSQFPYTFGQGTKVEIKR
notes: only variable domains are tied to v1; also called humanized 10F4v1; hu10F4v1
As a reminder, the Kd is the constant that tells how readily two partners part at equilibrium. With B1, in test [1], the Kd was 1.4 nM and 1.8 nM.

B2: Chimeric 10F4 (antibody, V domains shown)
VH: QVQLQQSGPELVKPGASVKISCKASGYEFSRSWMNWVKQRPGQGREWIGRIYPGDGDTNYSGKFKGKATLTADKSSSTAYMQLSSLTSVDSAVYFCARDGSSWDWYFDVWGAGTTVTVSS
VL: DILMTQTPLSLPVSLGDQASISCRSSQSIVHSNGNTFLEWYLQKPGQSPKLLIYKVSNRFSGVPDRFSGSGSGTDFTLKISRVEAEDLGVYYCFQGSQFPYTFGGGTKVEIK
notes: also called murine chimeric 10F4
One may read the koff as the rate constant with which the complex falls apart. The term kon denotes the second-order rate constant of association. For the molecule B2, in test [2], binding was put at a Kd of 16 nM, the koff came to 0.00042 s⁻¹ and the kon amounted to 26000 M⁻¹ s⁻¹.

B3: humanized 10F4 version 2 antibody (antibody, human IgG1, kappa)
heavy: not shown
light: DIQMTQSPSSLSASVGDRVTITCRSSQSIVHSVGNTFLEWYQQKPGKAPKLLIYKVSNRFSGVPSRFSGSGSGTDFTLTISSLQPEDFATYYCFQGSQFPYTFGQGTKVEIKRTVAAPSVFIFPPSDEQLKSGTASVVCLLNNFYPREAKVQWKVDNALQSGNSQESVTEQDSKDSTYSLSSTLTLSKADYEKHKVYACEVTHQGLSSPVTKSFNRGEC
notes: Differs from hu10F4v1 by N28V (Kabat) in HVR-L1; Mature protein identical to hu10F4v3; also called humanized 10F4v2; hu10F4v2
The molecule B3 came in with a Kd in test [3] of 2.1 nM.

B4: thio hu LC(V205C) 10F4v3-MCvcPAB-MMAE (antibody, human IgG1, kappa)
heavy: not shown
light: DIQMTQSPSSLSASVGDRVTITCRSSQSIVHSVGNTFLEWYQQKPGKAPKLLIYKVSNRFSGVPSRFSGSGSGTDFTLTISSLQPEDFATYYCFQGSQFPYTFGQGTKVEIKRTVAAPSVFIFPPSDEQLKSGTASVVCLLNNFYPREAKVQWKVDNALQSGNSQESVTEQDSKDSTYSLSSTLTLSKADYEKHKVYACEVTHQGLSSPCTKSFNRGEC
modifications: MC-val-cit-PAB-MMAE on the engineered Cys at Kabat position 205 (sequential position 210)
notes: Cysteine engineered IgG1 (ThioMab) drug conjugate; also called thio hu LC-10F4v3-MC-val-cit-PAB-MMAE; Thio 10F4v3-LC(V205C)-MCvcPAB-MMAE
For B4, in test [4], the binding result is “binds”.
